# Assay results published in patent US20200407452A1 (published 2020).
# Changes are numbered by the printed parent chain.
# B1: 71G12 chimeric llama-human IgG1 mAb (antibody, V domains shown)
# VH: QVQLQESGGDLVQPGGSLRVSCVVSGFTFSRYYMSWVRQAPGKGLEWVSSIDSYGYSTYYTDSVKGRFTISRDNAKNTLYLQMNSLKPEDTALYYCARAKTTWSYDYWGQGTQVTVSS
# VL: EIVLTQSPSSVTASVGGKVTINCKSSQSVFIASNQKTYLNWYQQRPGQSPRLVISYASTRESGIPDRFSGSGSTTDFTLTISSVQPEDAAVYYCQQAYSHPTFGQGTKVELK
# notes: human IgG1 CH1-CH2-CH3 and human CL kappa
# B2: 74C8 chimeric llama-human IgG1 mAb (antibody, V domains shown)
# VH: EVQLVESGGGLVQPGGSLRLSCAASGFTFRNYHMSWVRQVPGKGFEWISDINSAGGSTYYADSVKGRFTISRDNAKNTLYLEMNSLKPEDTALYYCARVNVWGVNYWGKGTLVSVSS
# VL: QTVVTQEPSLSVSPGGTVTLTCGLSSGSVTTSNYPGWFQQTPGQAPRTLIYNTNSRHSGVPSRFSGSISGNKAALTITGAQPEDEADYYCSLYPGSYTNVFGGGTHLTVL
# notes: human IgG1 CH1-CH2-CH3 and human CL lambda
# B3: 72F8 chimeric llama-human IgG1 mAb (antibody, V domains shown)
# VH: ELQLVESGGGLVQPGGSLRLSCAASGFTFSNYVMSWVRQAPGKGLEWVSDTNSGGSTSYADSVKGRFTISRDNAKNTLYLQMNSLKPEDTALYYCARSFFYGMNYWGKGTQVTVSS
# VL: QSALTQPPSLSASPGSSVRLTCTLSSGNNIGSYDISWYQQKAGSPPRYLLNYYTDSRKHQDSGVPSRFSGSKDASANAGLLLISGLQPEDEADYYCSAYKSGSYRWVFGGGTHVTVL
# notes: as for B2
# B4: 71C3 chimeric llama-human IgG1 mAb (antibody, V domains shown)
# VH: QLQLVESGGGLVQPGGSLRLSCAASGFTFSSHAMSWVRQAPGKGLEWVSAINSGGGSTSYADSVKGRFTISRDNAKNTLYLQMNSLKPEDTAVYYCAKELRFDLARYTDYEAWDYWGQGTQVTVSS
# VL: SYELTQPSALSVTLGQTAKITCQGGSLGSSYAHWYQQKPGQAPVLVIYDDDSRPSGIPERFSGSSSGGTATLTISGAQAEDEGDYYCQSADSSGNAAVFGGGTHLTVL
# notes: as for B2
# B5: 71D4 chimeric llama-human IgG1 mAb (antibody, V domains shown)
# VH: B4 VH with Q1E, S31G, H32Y, A33G, A50D, E99D, L100M, F102L, D103Y, T108N
# VL: B4 VL with Y2S, E3A
# notes: as for B2
# B6: 76G7 chimeric llama-human IgG1 mAb (antibody, V domains shown)
# VH: QVQLVESGGNLVQPGGSLRLSCAASGFTFSNYYMSWVRQAPGKGLEWVSDIYSDGSTTWYSDSVKGRFTISRDNAKNTLSLQMNSLKSEDTAVYYCARVKIYPGGYDAWGQGTQVTVSS
# VL: QAGLTQPPSVSGSPGKTVTISCAGNSSDVGYGNYVSWYQQFPGMAPKLLIYLVNKRASGITDRFSGSKSGNTASLTISGLQSEDEADYYCASYTGSNNIVFGGGTHLTVL
# notes: as for B2
# B7: recombinant mouse HGF (R&D Systems) (ligand, UniProt Q08048 33-728, looked up)
# chain: QKKRRNTLHEFKKSAKTTLTKEDPLLKIKTKKVNSADECANRCIRNRGFTFTCKAFVFDKSRKRCYWYPFNSMSSGVKKGFGHEFDLYENKDYIRNCIIGKGGSYKGTVSITKSGIKCQPWNSMIPHEHSFLPSSYRGKDLQENYCRNPRGEEGGPWCFTSNPEVRYEVCDIPQCSEVECMTCNGESYRGPMDHTESGKTCQRWDQQTPHRHKFLPERYPDKGFDDNYCRNPDGKPRPWCYTLDPDTPWEYCAIKTCAHSAVNETDVPMETTECIQGQGEGYRGTSNTIWNGIPCQRWDSQYPHKHDITPENFKCKDLRENYCRNPDGAESPWCFTTDPNIRVGYCSQIPKCDVSSGQDCYRGNGKNYMGNLSKTRSGLTCSMWDKNMEDLHRHIFWEPDASKLNKNYCRNPDDDAHGPWCYTGNPLIPWDYCPISRCEGDTTPTIVNLDHPVISCAKTKQLRVVNGIPTQTTVGWMVSLKYRNKHICGGSLIKESWVLTARQCFPARNKDLKDYEAWLGIHDVHERGEEKRKQILNISQLVYGPEGSDLVLLKLARPAILDNFVSTIDLPSYGCTIPEKTTCSIYGWGYTGLINADGLLRVAHLYIMGNEKCSQHHQGKVTLNESELCAGAEKIGSGPCEGDYGGPLICEQHKMRMVLGVIVPGRGCAIPNRPGIFVRVAYYAKWIHKVILTYKL
# modifications: biotinylated at the N-terminus using NHS-LC-biotin (in the competition ELISA only)
# B8: 71G2 llama-mouse chimeric mAb (mouse IgG1/lambda) (antibody, V domains shown)
# VH: EVQLQESGGGLVQPGGSLRLSCAASGFTFSIYDMSWVRQAPGKGLEWVSTINSDGSSTSYVDSVKGRFTISRDNAKNTLYLQMNSLKPEDTAVYYCAKVYGSTWDVGPMGYGMDYWGKGTLVTVSS
# VL: SSALTQPSALSVSLGQTARITCQGGSLGSSYAHWYQQKPGQAPVLVIYGDDSRPSGIPERFSGSSSGGTATLTISGAQAEDEDDYYCQSTDSSGNTVFGGGTRLTVLG
# B9: 71G3 llama-mouse chimeric mAb (mouse IgG1/lambda) (antibody, V domains shown)
# VH: QVQLVESGGGLVQPGGSLRVSCAASGFTFSTYYMSWVRQAPGKGLEWVSDIRTDGGTYYADSVKGRFTMSRDNAKNTLYLQMNSLKPEDTALYYCARTRIFPSGYDYWGQGTQVTVSS
# VL: QAVVTQEPSLSVSPGGTVTLTCGLSSGSVTTSNYPGWFQQTPGQAPRTLIYNTNSRHSGVPSRFSGSISGNKAALTIMGAQPEDEADYYCSLYPGSTTVFGGGTHLTVLG
# Target: T1, native human MET on living cells (human, UniProt P08581 25-1390)
# Experiment: cell-based or functional assay
row,Binder,"phospho-MET ELISA EMAX, A549 cells"
1,B1,70.6 % HGF activity
2,B2,87.6 % HGF activity
3,B3,69.7 % HGF activity
4,B4,86.2 % HGF activity
5,B5,84.6 % HGF activity
6,B6,62.3 % HGF activity

# Target: T2, native mouse MET on living cells (mouse, UniProt P16056 25-1379)
# Experiment: cell-based or functional assay
row,Binder,"phospho-MET ELISA EMAX, MLP29 cells"
1,B1,75.4 % HGF activity
2,B2,102 % HGF activity
3,B3,66.8 % HGF activity
4,B4,98.8 % HGF activity
5,B5,95.3 % HGF activity
6,B6,71.5 % HGF activity
7,B7,100 % HGF activity

# Target: human MET ECD mutant A (mutations 1, 2, 3) (human) (UniProt P08581)
# Experiment: ELISA, WT or mutant hMET ECD coated
row,Binder,% binding (EMAX) vs WT MET ECD
1,B4,99.8%
2,B5,114%

# Target: human MET ECD mutant E (mutations 2, 3, 4) (human) (UniProt P08581)
# Experiment: ELISA, WT or mutant hMET ECD coated
row,Binder,% binding (EMAX) vs WT MET ECD
1,B4,59.6%
2,B5,57.2%

# Target: human MET ECD mutant D (mutations 1, 2) (human) (UniProt P08581)
# Experiment: ELISA, WT or mutant hMET ECD coated
row,Binder,% binding (EMAX) vs WT MET ECD
1,B4,102%
2,B5,120%

# Target: human MET ECD mutant H (mutations 2, 4) (human) (UniProt P08581)
# Experiment: ELISA, WT or mutant hMET ECD coated
row,Binder,% binding (EMAX) vs WT MET ECD
1,B4,61.6%
2,B5,58.7%

# Target: T1, native human MET on living cells
# Experiment: cell-based or functional assay
# Remark: another data set of the same source
row,Binder,LOC br. m. (branch n.)
1,B8,29.8 branches per spheroid
2,B9,20.8 branches per spheroid

# Target: T2, native mouse MET on living cells
# Experiment: cell-based or functional assay
# Remark: another data set of the same source
row,Binder,MLP29 br. m. (branch n.)
1,B8,41.2 branches per spheroid
2,B9,30.1 branches per spheroid

# Target: T3, human MET ECD (human, UniProt P08581 25-932)
# T3 construct: range 1-932; recombinant; range as printed includes the signal peptide; also called hMET; hMET ECD
# Experiment: ELISA, MET ECD coated, mAb 0-20 nM
# Description: (§1) Production (by transient transfection of mammalian cells) and purification (by protein A affinity chromatography) of the resulting chimeric llama-human IgG1 molecules was outsourced to U-protein Express. Binding of chimeric mAbs to MET was determined by ELISA using hMET or mMET ECD in solid phase and increasing concentrations of antibodies (0-20 nM) in solution. […] Binding capacity (EMAX) varied from antibody to antibody, possibly due to partial epitope exposure in the immobilized antigen, but was similar in the human and mouse setting.
row,Binder,EMAX
1,B1,3.08 OD450 AU
2,B2,0.994 OD450 AU
3,B3,2.78 OD450 AU
4,B4,2.46 OD450 AU
5,B5,1.43 OD450 AU
6,B6,2.62 OD450 AU

# Target: T4, mouse MET ECD (mouse, UniProt P16056 25-931)
# T4 construct: range 1-931; recombinant; range as printed includes the signal peptide; also called mMET; mMET ECD
# Experiment: ELISA, MET ECD coated, mAb 0-20 nM
# Description: as §1
row,Binder,EMAX
1,B1,2.97 OD450 AU
2,B2,0.896 OD450 AU
3,B3,2.9 OD450 AU
4,B4,2.24 OD450 AU
5,B5,1.17 OD450 AU
6,B6,2.78 OD450 AU

# Target: T1, native human MET on living cells
# Experiment: cell-based or functional assay
# Remark: another data set of the same source
Binder,"protection from staurosporine-induced apoptosis EC50, MCF10A cells","protection from staurosporine-induced apoptosis EMAX, MCF10A cells"
B1,> 32 nM,39.4%
B2,> 32 nM,41.7%
B3,> 32 nM,35.8%
B4,31.9 nM,50.2%
B5,30.2 nM,51.7%
B6,25.4 nM,51.9%

# Target: T2, native mouse MET on living cells
# Experiment: cell-based or functional assay
# Remark: another data set of the same source
Binder,"protection from staurosporine-induced apoptosis EC50, MLP29 cells","protection from staurosporine-induced apoptosis EMAX, MLP29 cells"
B1,> 32 nM,39.7%
B2,> 32 nM,37.5%
B3,> 32 nM,43.8%
B4,31 nM,51.3%
B5,29.8 nM,52.1%
B6,30.1 nM,50.2%
B7,5.35 nM,58.6%

# Target: T3, human MET ECD
# Experiment: ELISA, WT or mutant hMET ECD coated
# Description: Using human MET as a template, we mutagenized each of these residues in different permutations, generating a series of MET mutants that are fully human except for specific residues, which are llama. Next, we tested the affinity of selected SEMA-binding mAbs (71D6, 71C3, 71D4, 71A3, 71G2) and PSI-binding mAbs (76H10 and 71G3) for these MET mutants by ELISA. To this end, the various MET proteins were immobilized in solid phase (100 ng/well in a 96-well plate) and then exposed to increasing concentrations of antibodies (0-50 nM) solution. […] Wild-type human MET was used as positive control.
# TABLE 24 The epitopes of MET responsible for agonistic antibody binding represent residues conserved among H. sapiens, M. musculus, R. norvegicus, M. fascicularis but not among the same species and L. glama. The relevance of residues conserved among human, mouse, rat, cynomolgus monkey but not llama MET for binding to agonistic mAbs was tested by ELISA. Wild-type (WT) or mutant (MT) human MET ECD was immobilized in solid phase and exposed to increasing concentrations of mAbs in solution. […] All binding values were normalized to the WT protein and are expressed as % binding (EMAX) compared to WT MET.
row,Binder,% binding (EMAX) vs WT MET ECD
1,B4,100%
2,B5,100%
